Results: article PMC7904734, “ORP/Osh mediate cross-talk between ER-plasma membrane contact site components and plasma membrane SNAREs” (Cellular and Molecular Life Sciences: CMLS, 2020)

Tests used:
[1] = target: YFP(C)·Sec22p (S. cerevisiae) (UniProt P22214); assay: split reporter (BiFC, NanoBiT); BiFC in living Δosh1-3 yeast cells (Y36), compared with wt (Y2)
[2] = target: T1, Venus(C)·VAPA (lentiviral) (human), Q9P0L0; assay: split reporter (BiFC, NanoBiT); BiFC of Venus(N)·VAPA and Venus(C)·VAPA in wt mouse hippocampal neurons, lentiviral; scrambled or ORP2 shRNA; infected DIV 3 and fixed DIV 7, or infected DIV 7 and fixed DIV 14; conditions: remark: other sources report otherwise
T1 chain: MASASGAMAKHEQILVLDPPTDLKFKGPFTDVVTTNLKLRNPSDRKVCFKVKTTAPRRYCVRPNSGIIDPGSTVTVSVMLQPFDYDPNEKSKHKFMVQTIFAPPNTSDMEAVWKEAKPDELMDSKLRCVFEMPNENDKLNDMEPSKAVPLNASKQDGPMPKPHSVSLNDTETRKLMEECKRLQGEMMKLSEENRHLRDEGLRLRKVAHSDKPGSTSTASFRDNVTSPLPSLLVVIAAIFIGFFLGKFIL

His·Osh3p = target: T2, His·Osh3p (S. cerevisiae, UniProt P38713 1-996); assay: pull-down; 2 μM GST·Sec9p(421–651) or GST on Glutathione-Agarose, equal molar His·Osh3p, 100 µl PBS + 0.1% Triton X-100, 1 h, room temperature; SDS-PAGE, Coomassie; conditions: both partners purified
T2 construct: Osh3p, PCR amplified and cloned into vector 1509; also called His6-tagged Osh3p; source: bacterial production, purified (Ni-NTA agarose)
T2 sequence (looked up): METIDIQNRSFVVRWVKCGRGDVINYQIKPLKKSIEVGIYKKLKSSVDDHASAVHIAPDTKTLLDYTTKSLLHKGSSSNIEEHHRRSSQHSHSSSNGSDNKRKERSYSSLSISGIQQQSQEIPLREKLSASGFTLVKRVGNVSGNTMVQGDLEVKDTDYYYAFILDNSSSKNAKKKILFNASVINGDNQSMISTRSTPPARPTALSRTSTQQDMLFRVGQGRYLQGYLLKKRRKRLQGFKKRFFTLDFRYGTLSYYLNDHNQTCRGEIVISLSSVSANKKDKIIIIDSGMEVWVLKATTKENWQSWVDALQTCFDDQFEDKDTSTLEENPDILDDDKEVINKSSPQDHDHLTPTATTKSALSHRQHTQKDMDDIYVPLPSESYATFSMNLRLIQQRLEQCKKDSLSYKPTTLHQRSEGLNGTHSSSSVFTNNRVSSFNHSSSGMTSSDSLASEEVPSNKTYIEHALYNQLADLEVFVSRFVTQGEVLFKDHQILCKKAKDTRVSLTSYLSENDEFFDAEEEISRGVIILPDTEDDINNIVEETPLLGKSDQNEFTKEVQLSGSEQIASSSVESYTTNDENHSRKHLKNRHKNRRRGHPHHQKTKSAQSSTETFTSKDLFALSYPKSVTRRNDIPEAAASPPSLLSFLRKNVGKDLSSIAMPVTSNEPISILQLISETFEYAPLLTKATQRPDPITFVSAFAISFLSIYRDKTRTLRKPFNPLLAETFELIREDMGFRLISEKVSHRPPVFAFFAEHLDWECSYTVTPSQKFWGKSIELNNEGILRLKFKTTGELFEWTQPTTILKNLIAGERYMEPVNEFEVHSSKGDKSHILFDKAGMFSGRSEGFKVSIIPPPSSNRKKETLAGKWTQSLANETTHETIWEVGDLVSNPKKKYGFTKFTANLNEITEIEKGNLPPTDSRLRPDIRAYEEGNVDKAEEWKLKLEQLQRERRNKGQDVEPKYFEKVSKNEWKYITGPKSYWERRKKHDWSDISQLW

Chain of YFP(C)·Sec22p (S. cerevisiae) (P22214 whole entry): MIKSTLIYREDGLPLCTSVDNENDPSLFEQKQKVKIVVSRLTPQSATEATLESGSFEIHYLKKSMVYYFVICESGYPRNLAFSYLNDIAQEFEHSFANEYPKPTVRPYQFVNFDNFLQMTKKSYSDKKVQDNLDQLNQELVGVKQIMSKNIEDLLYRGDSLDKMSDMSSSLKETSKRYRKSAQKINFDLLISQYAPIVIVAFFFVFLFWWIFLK

YFP(N)·Sso1p (from UniProt P32867 1-290) (natural protein)
reduction of the BiFC signal in the Δosh1-3 strain against wt [1]: 19%

B1: Venus(N)·VAPA (lentiviral), Q9P0L0 1-249 (natural protein)
chain: T1 chain
fold reduction of VAPA-VAPA BiFC patches in ORP2 KD cells (transduced DIV 3, fixed DIV 7) [2]: 1.7 fold
fold reduction of VAPA-VAPA BiFC patches in ORP2 KD cells (transduced DIV 7, fixed DIV 14) [2]: 2.3 fold

B2: GST·Sec9p(421–651) (domain or fragment, S. cerevisiae, UniProt P40357 421-651, looked up)
chain: EEDEAVDEIKQEIKFTKQSSVASTRNTLKMAQDAERAGMNTLGMLGHQSEQLNNVEGNLDLMKVQNKVADEKVAELKKLNRSILAVHVSNPFNSKRRRREREEQLKNRKIEEKLMREQTSQQLSQSTQRIEGAMNANNNISEVRERYQRKNVLEKAKRYQFENDEEDDEMELEIDRNLDQIQQVSNRLKKMALTTGKELDSQQKRLNNIEESTDDLDINLHMNTNRLAGIR
notes: cut out of 1530 and cloned into 977
binding result (His·Osh3p): binds
